Values joined by “and” are separate entries in the source; they are usually repeats but may differ in a detail not shown here. Equal values may be shown once.
What was measured:
[1] = molecular target: α-Synuclein preformed fibrils (α-Syn PFF) (mouse) (UniProt O55042); experiment: ELISA
[2] = molecular target: α-Synuclein preformed fibrils (α-Syn PFF) (mouse) (UniProt O55042); experiment: SPR

Sequence of ΔLRR hNOD2-Fc (Q9HC29 whole entry, stated change not applied, the tested form may be a part): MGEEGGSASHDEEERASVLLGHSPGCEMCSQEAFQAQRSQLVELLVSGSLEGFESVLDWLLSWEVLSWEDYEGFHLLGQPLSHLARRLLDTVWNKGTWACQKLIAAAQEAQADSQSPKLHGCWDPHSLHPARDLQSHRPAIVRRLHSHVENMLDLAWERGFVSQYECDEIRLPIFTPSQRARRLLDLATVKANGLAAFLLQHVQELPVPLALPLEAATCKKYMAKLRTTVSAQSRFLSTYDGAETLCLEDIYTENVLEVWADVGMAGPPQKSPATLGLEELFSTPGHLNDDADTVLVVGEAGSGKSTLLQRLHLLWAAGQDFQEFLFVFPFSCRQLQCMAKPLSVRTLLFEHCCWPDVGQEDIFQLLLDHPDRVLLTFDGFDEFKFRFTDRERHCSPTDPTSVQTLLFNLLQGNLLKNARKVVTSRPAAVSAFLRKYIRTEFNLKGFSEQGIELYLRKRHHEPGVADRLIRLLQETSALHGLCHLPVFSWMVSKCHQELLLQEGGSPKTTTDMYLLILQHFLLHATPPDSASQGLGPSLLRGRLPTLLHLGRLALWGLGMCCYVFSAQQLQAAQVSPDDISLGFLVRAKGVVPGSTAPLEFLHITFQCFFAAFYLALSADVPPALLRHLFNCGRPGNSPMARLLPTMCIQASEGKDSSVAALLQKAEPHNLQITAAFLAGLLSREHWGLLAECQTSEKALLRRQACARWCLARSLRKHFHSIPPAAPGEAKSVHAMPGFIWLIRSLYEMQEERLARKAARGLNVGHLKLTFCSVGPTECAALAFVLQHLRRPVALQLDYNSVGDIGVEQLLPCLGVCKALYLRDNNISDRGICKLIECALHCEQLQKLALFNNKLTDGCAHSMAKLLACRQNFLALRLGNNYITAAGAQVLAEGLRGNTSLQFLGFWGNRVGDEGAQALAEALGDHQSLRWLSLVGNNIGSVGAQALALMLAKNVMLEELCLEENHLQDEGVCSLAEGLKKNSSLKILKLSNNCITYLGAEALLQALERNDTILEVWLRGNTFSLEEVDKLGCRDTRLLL

| Substance | Kd [1] | Kd [2] |
| --- | --- | --- |
| ΔLRR hNOD2-Fc (from UniProt Q9HC29 1-1040) (Fc fusion) | 2810 nM |  |
| FL hNOD2 with the Fc-tag removed by HRV 3C protease (from UniProt Q9HC29 1-1040) (natural protein) |  | 807 nM and 1190 nM |
| human IgG1 Fc-tagged human NOD2 full-length (FL hNOD2-Fc) (from UniProt Q9HC29 1-1040) (Fc fusion) | 1200 nM |  |

Source: article doi:10.1101/2024.02.19.580982
